Data as given in article PMC10126545 (2023).
Where “and” joins values, the source holds several entries; their conditions need not be identical. Identical values can stand only once.

What was measured:
Assay in all cases: BLI
[1] = biological target: T1, COBRA P1 HA wild type, CHO expressed, for binding assays (glycosylation at Asn127)
[2] = biological target: T1, COBRA P1 HA wild type, CHO expressed, …; remark: listed apart in the source
[3] = biological target: COBRA P1 HA N127D mutant, CHO expressed, for binding assays

B1: Fab 1F8 (recombinant Fab of the P1-elicited mouse monoclonal antibody 1F8) (Fab, V domains shown)
VH: QVQLQQSGAELMKPGASVKISCKATGYTFSSYWIEWVKQRPGHGLEWIGEILPGSGRTNYDERFKGKATFTADTSSNTAYMQLSSLTSEDSAVYYCARPRIYGMDYWGQGTSVTVSS
VL: DIVLTQSPASLAVSLGQRATISCKASQSVDFDGDTYMSWYQQKPGQPPKLLIYAASKLESGIPARFSGSGSGTDFTLNIHPVEEEDAATYFCQQSNEDPWTFGGGTKLEIK
- Kd [1]: 2.56 nM and 3.35 nM
- koff [2]: 0.000813 s⁻¹
- koff [3]: 0.000855 s⁻¹
